Experimental data reported in publication PMC9967645, “OAT3 Participates in Drug–Drug Interaction between Bentysrepinine and Entecavir through Interactions with M8—A Metabolite of Bentysrepinine—In Rats and Humans In Vitro” (Molecules, 2023).

Substrate: CN(C)CCOc1ccc(CC(NC(=O)c2ccccc2)C(=O)O)cc1
Experiment: cells, lysate or membranes named
Conditions: other: hOAT3-HEK293 cells, Eadie–Hofstee plot, 2 to 1000 µM, 5 min; pH 7.4
Procedure: The hOAT1-HEK293, hOAT3-HEK293 and mock cells were cultured in Dulbecco modified Eagle medium (DMEM) containing 10% fetal bovine serum (FBS) and 1% penicillin/streptomycin in an atmosphere of 5% CO2 air at 37 °C. The HEK293 cells were plated on 24-well plates at a density of 5 × 10^5 cells/well. […] Uptake assay was initiated by adding 1 mL of the transporter buffer containing Y101, M8, ETV or probe substrate. Following incubation with gentle shaking, the uptake was terminated at designated time by removing the transporter buffer and washing cells three times with 1 mL of ice-cold HBSS. Next, substrates of Y101, M8, ETV, PAH and ES in cell monolayer were released by lysing the cells with 0.3 mL of 0.1% Triton X-100 for 2 h and determined by liquid chromatography–tandem mass spectrometry (LC–MS/MS). In the time-course uptake assay, Y101 (2.0 µM) and M8 (10 µM) in the presence or absence of PRO (100 µM) were measured in hOAT1-HEK293, hOAT3-HEK293 and mock cells. The concentration-dependent uptake of M8 was determined in hOAT3-HEK293 cells, and incubation time (5 min) was optimized. […] The uptake of ETV (10 µM) with or without Y101 or M8 was also measured in hOAT1-HEK293 and hOAT3-HEK293 cells, respectively. […] Protein concentrations were measured by the bicinchoninic acid procedure (Solarbio, Beijing, China) using bovine serum albumin as the standard. […]

B1: hOAT3 (Homo sapiens) (protein)
chain: MTFSEILDRVGSMGHFQFLHVAILGLPILNMANHNLLQIFTAATPVHHCRPPHNASTGPWVLPMGPNGKPERCLRFVHPPNASLPNDTQRAMEPCLDGWVYNSTKDSIVTEWDLVCNSNKLKEMAQSIFMAGILIGGLVLGDLSDRFGRRPILTCSYLLLAASGSGAAFSPTFPIYMVFRFLCGFGISGITLSTVILNVEWVPTRMRAIMSTALGYCYTFGQFILPGLAYAIPQWRWLQLTVSIPFFVFFLSSWWTPESIRWLVLSGKSSKALKILRRVAVFNGKKEEGERLSLEELKLNLQKEISLAKAKYTASDLFRIPMLRRMTFCLSLAWFATGFAYYSLAMGVEEFGVNLYILQIIFGGVDVPAKFITILSLSYLGRHTTQAAALLLAGGAILALTFVPLDLQTVRTVLAVFGKGCLSSSFSCLFLYTSELYPTVIRQTGMGVSNLWTRVGSMVSPLVKITGEVQPFIPNIIYGITALLGGSAALFLPETLNQPLPETIEDLENWSLRAKKPKQEPEVEKASQRIPLQPHGPGLGSS
- Km: 367 µM
- Vmax: 414 pmol/min/mg protein
